From patent WO2017061602A1 (dated 2017) come the findings set out here.

For test [1], the target named is T1, extracellular domain cynomolgus monkey CD147-His (cynomolgus monkey).
T1 construct: Made in FreeStyle-293F cells, purified on His-Trap HP; also called monkey extracellular domain CD147-His; cynomolgus monkey CD147 extracellular domain antigen
T1 chain: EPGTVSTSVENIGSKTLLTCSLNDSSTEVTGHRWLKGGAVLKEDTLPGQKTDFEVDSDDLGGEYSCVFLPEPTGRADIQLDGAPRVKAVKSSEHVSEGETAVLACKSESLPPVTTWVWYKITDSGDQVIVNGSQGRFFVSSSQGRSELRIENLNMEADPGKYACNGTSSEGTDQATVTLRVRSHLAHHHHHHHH
The test can be described thus: ELISA, extracellular domain cynomolgus monkey CD147-His on the plate. On the technique in general: ELISA stands for enzyme-linked immunosorbent assay.

For test [2], the target named is T2, extracellular domain human CD147-His (human, UniProt P35613 140-323).
T2 construct: Made in FreeStyle-293F cells, purified on His-Trap HP; also called extracellular domain CD147-His; human CD147 extracellular domain antigen
T2 sequence: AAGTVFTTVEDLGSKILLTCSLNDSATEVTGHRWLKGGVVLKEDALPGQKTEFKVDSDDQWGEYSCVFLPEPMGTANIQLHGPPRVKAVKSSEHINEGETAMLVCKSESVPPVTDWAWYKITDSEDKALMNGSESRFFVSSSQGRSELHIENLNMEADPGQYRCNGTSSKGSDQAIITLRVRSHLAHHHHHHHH
Briefly: ELISA, extracellular domain human CD147-His on the plate.

B1: HAb18 (antibody, V domains shown)
VH: EVKLEESGGGLVQPGGSMKLSCVASGFTFSDAWMDWVRQSPEKGLEWVAEIRSKANNHAPYYTESVKGRFTISRDDSKSIIYLQMNNLRAEDTGIYYCTRDSTATHWGQGTLVTVSA
VL: SIVMTQTPTFLVVSAGDRVTITCKASQSVINDVAWYQQKPGQSPKLLIFYASNRNTGVPDRFTGSGYGTDFTFTISTVQAEDLAVYFCQQDYSPPFTFGSGTKLEIK
notes: also called HAb18G; target antibody HAb18
Turning to B1, the figures for the binding result in test [1] and in test [2] were “no binding” and “binds”, respectively.
